The target in experiment [1] is ASB9–EloBC ternary complex (ankyrin-repeat and SOCS-box protein 9, Elongin B, Elongin C) (human) (UniProt Q96DX5). Description: ITC; 298 K; Cullin NTD (450 μM) titrated into ASB9–EloBC (60 μM) in the cell; 50 mM HEPES, 100 mM NaCl, pH 7.5, 1 mM TCEP; one-set-of-sites model. (In ITC the heat of successive injections is recorded.)
For experiment [2] the target is unchanged. Description: differential scanning fluorimetry; 2 μM ASB9–EloBC with Cul5NTD at 8, 4, 2, 1, 0.5 and 0.25 μM; Sypro Orange; 50 mM HEPES, 100 mM NaCl, pH 7.5, 1 mM TCEP; 37 to 95 °C at 1 °C/min. Background: Differential scanning fluorimetry follows unfolding on heating by fluorescence.
For experiment [3] the target is unchanged. The experiment can be described thus: ITC; 303 K; Cul5NTD (450 μM) titrated into ASB9–EloBC (60 μM) in the cell; 50 mM HEPES, 100 mM NaCl, pH 7.5, 1 mM TCEP; one-set-of-sites model.
Experiment [4] has the same target. Description: ITC; 288 K; Cul5NTD (450 μM) titrated into ASB9–EloBC (60 μM) in the cell; 50 mM HEPES, 100 mM NaCl, pH 7.5, 1 mM TCEP; one-set-of-sites model.
Experiment [5] has the same target. Description: native MS; nanoESI–MS of the reconstituted ASB9–EloBC–Cul5NTD sample at three concentrations; 500 mM ammonium acetate, pH 7.0.
Experiment [6] deals with T1, Cullin 5 N-terminal domain (residues 1–386, V341R, L345D) (human, UniProt Q93034 1-386, V341R | L345D). The experiment can be described thus: ITC; 288 K.
In experiment [7] the target is T1, Cullin 5 N-terminal domain (residues …). Description: ITC; 293 K.
Experiment [8] shares this target. Description: ITC; 303 K.

As usually defined, the Kd is the free concentration of one partner at which half of the binding sites on the other are occupied at equilibrium, for simple one-to-one binding. Low values mean higher affinity, high ones lower affinity. One may read the stoichiometry N as a count of units in the complex or per binding partner. A word on the ΔTm: it is the shift of the melting midpoint relative to a reference. The molecule “Cullin 5 N-terminal domain (residues 1–386, V341R, L345D) (from UniProt Q93034 1-386) (domain or fragment)” showed a Kd in experiment [1] of 0.22 µM. Also, the dH is -25.1 kJ/mol in experiment [1], -34.7 kJ/mol in experiment [3] and -12.6 kJ/mol in experiment [4]. Besides, the stoichiometry N in experiment [1] and in experiment [5] was 1 in each case. The ΔTm in experiment [2] stood at 4.6 °C.

B1: ASB9–EloBC ternary complex (ankyrin-repeat and SOCS-box protein 9, Elongin B, Elongin C) (complex)
chain 1: SDWSPMHEAAIHGHQLSLRNLISQGWAVNIITADHVSPLHEACLGGHLSCVKILLKHGAQVNGVTADWHTPLFNACVSGSWDCVNLLLQHGASVQPESDLASPIHEAARRGHVECVNSLIAYGGNIDHKISHLGTPLYLACENQQRACVKKLLESGADVNQGKGQDSPLHAVARTASEELACLLMDFGADTQAKNAEGKRPVELVPPESPLAQLFLEREGPPSLMQLCRLRIRKCFGIQQHHKITKLVLPEDLKQFLLHL
chain 2: MDVFLMIRRHKTTIFTDAKESSTVFELKRIVEGILKRPPDEQRLYKDDQLLDDGKTLGECGFTSQTARPQAPATVGLAFRADDTFEALCIEPFSSPPELPDVMKPQDSGSSANEQAVQ
chain 3: MYVKLISSDGHEFIVKREHALTSGTIKAMLSGPGQFAENETNEVNFREIPSHVLSKVCMYFTYKVRYTNSSTEIPEFPIAPEIALELLMAANFLDC
For B1, the Kd worked out at 0.282 µM in experiment [6], 0.119 µM in experiment [7] and 0.061 µM in experiment [8].
